Measured values reported in the supplement of paper PMC9732359.
± gives the uncertainty stated by the source.

Test: protein stability index of a GFP-peptide fusion (yeast GPS) (PSI 1-4); higher = more stable; sorted into four equal gates, so the index is relative within each strain
How it was run: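 Sequencing reads from sorted gates were used to score each peptide. The library consisted of tiled 17-residue yeast protein peptides fused downstream of GFP on a Cherry-expressing plasmid, pooled and carried in yeast. Mid-log cultures in leucine-free medium were split into four equal gates by GFP/Cherry ratio, and each gate's plasmids were PCR-amplified and Illumina-sequenced. The protein stability index adds up, over all gates, the read frequency multiplied by the gate number.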

Sequence | protein stability index (doa10∆) | protein stability index (pdr5∆) | protein stability index (san1∆) | protein stability index (ubr1∆)
AAIWTLCKTKMVCETDV [RPO21] | 1.55 ± 0.059 | 1.69 ± 0.057 | 1.44 ± 0.1 | 1.47 ± 0.034
SLLESGSEILGDLKLQV [RPO21] | 3.59 ± 0.27 | 3.58 ± 0.14 | 2.53 ± 0.21 | 3.02 ± 0.18
VEKRIGKIVSQRGKWNL [RGR1] | 2.88 ± 0.065 | 2.96 ± 0.049 | 3.16 ± 0.06 | 2.71 ± 0.036
VDSRTKIRMLTQAAEFL [IRR1] | 2.47 ± 0.11 | 2.96 ± 0.084 | 1.78 ± 0.11 | 2.81 ± 0.079
KQTKLRKEKEKKPGKIA [SMB1] | – | 3.36 ± 0.15 | 2.51 ± 0.29 | –
KLKEMQKVLNAHRQRAM [SMC4] | 1.84 ± 0.099 | 2.14 ± 0.12 | 1.9 ± 0.12 | 1.57 ± 0.055
SESKDSDKPSLPSAVDG [YLR335W/NUP2] | 3.41 ± 0.1 | 3.38 ± 0.1 | 3.28 ± 0.11 | 2.95 ± 0.15
TAKLQMRRFILGTTEGD [RPN14] | 1.41 ± 0.27 | 1.45 ± 0.095 | – | –
VKVQPEGKYIVDVAKDI [RPT6] | 3.35 ± 0.12 | 3.14 ± 0.17 | 3.29 ± 0.038 | 3.16 ± 0.11
HRWGTKKLPRKTHRGLR [RPL3] | 3.32 ± 0.11 | 3.04 ± 0.13 | 3.12 ± 0.084 | 3.34 ± 0.061
KKFNMGKEFEARNLIED [RPC53] | 2.81 ± 0.11 | 2.72 ± 0.087 | 3.04 ± 0.083 | 2.56 ± 0.14
VTFIFGELKRGNESVKP [MED11] | 3.43 ± 0.17 | 3.12 ± 0.077 | 2.97 ± 0.1 | 2.98 ± 0.15
DSEGSIKQTSDESTIKR [ECM29] | 3.43 ± 0.11 | 3.56 ± 0.085 | 3.43 ± 0.068 | 3.41 ± 0.063
IYNSASKASMQKEQNVN [YCS4] | 1.65 ± 0.13 | 2.11 ± 0.13 | 1.58 ± 0.22 | 2.17 ± 0.077
VKGETRIQNRVKLGLNS [PRP8] | 2.08 ± 0.16 | 2.7 ± 0.15 | 2.23 ± 0.23 | 2.58 ± 0.15
VYDIMALEDEERDEILT [BRR2] | 3.15 ± 0.16 | 3.28 ± 0.15 | 3.08 ± 0.078 | 3.39 ± 0.096
KTVDSSIQPIESNIKMT [SSN2] | 2.47 ± 0.082 | 2.72 ± 0.1 | 2.86 ± 0.083 | 2.74 ± 0.052
WGEQKKAMSSRAGVSQV [RPB2] | 3.27 ± 0.12 | 3.17 ± 0.099 | 3.25 ± 0.071 | 3.32 ± 0.05
IAKATKEFKGIKVTVQL [RPL12A] | – | – | – | 3.35 ± 0.18
IAFASNYGIVELDPECQ [RRP43] | 2.34 ± 0.083 | 2.68 ± 0.055 | 2.54 ± 0.059 | 2.53 ± 0.08
KVYAQLLESYKTLSLKS [RPN7] | 2.04 ± 0.062 | 2.56 ± 0.085 | 2 ± 0.11 | 1.32 ± 0.03
PFREFLQVLIDQLDSEA [ECM29] | 3.38 ± 0.095 | 2.6 ± 0.12 | 3.08 ± 0.089 | 3.01 ± 0.065
GKRQLMKAVGEYMKRHP [SEC65] | 2.73 ± 0.082 | 3.31 ± 0.091 | 2.94 ± 0.071 | 2.47 ± 0.086
LLAKRLSERKAEKAEIR [RPS6A] | 3.35 ± 0.092 | 3.54 ± 0.11 | 3.18 ± 0.086 | 3.33 ± 0.084
LLLRCDDRVDKKFVSQI [POP3] | 3.27 ± 0.11 | 3.34 ± 0.066 | 3.03 ± 0.054 | 3.22 ± 0.042
LSAVAQAESMKFKLLNG [RPS3] | 3.06 ± 0.1 | 3.21 ± 0.1 | 2.83 ± 0.12 | 3.09 ± 0.079
TNIHEPQYINYSSIPSL [SSN2] | 2.89 ± 0.23 | 2.46 ± 0.14 | – | –
LTSVTRHGFNRSNTGAL [RPO21] | 2.48 ± 0.067 | 2.39 ± 0.063 | 2.75 ± 0.093 | 2.51 ± 0.058
